According to US20090163698A1 (published 2009):

Molecular target: murine αVβ3/5 integrin (murine, UniProt P43406 31-1044)
Assay: cell-based or functional assay

Chain of murine αVβ3/5 integrin (P43406 31-1044): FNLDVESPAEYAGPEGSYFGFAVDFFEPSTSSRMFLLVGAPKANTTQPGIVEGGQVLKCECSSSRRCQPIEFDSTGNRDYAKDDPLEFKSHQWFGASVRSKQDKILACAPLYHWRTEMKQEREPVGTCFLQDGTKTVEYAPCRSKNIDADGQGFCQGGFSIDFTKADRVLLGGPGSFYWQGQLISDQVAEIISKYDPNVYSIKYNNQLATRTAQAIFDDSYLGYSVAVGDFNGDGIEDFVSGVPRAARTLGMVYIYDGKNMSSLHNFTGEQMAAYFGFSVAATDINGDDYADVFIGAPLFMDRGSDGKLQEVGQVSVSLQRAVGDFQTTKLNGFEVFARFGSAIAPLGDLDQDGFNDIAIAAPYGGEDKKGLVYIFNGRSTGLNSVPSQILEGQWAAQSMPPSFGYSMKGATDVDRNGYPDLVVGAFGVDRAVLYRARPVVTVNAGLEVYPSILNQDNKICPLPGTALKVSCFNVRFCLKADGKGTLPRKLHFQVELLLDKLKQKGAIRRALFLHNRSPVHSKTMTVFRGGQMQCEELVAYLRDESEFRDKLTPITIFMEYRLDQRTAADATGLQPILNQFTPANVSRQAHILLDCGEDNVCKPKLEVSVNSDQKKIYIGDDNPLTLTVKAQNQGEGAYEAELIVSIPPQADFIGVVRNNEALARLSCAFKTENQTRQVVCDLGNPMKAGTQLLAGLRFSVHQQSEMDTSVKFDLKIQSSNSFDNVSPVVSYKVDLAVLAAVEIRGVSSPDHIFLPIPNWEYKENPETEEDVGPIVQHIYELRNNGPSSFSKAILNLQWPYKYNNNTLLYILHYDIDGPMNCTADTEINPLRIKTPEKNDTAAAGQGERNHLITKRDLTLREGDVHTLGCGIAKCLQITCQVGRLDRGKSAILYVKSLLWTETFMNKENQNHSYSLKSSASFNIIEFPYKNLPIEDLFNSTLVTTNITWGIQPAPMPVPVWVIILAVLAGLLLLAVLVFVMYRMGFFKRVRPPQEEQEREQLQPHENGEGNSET

Increase (ratio of IC50 of liposome-entrapped doxorubicin to IC50 of 90:1 targeted liposomes), B16-F10 cells: 1 fold
B1: CNTO 95 Fab′ (anti-alpha-V Fab′ made by pepsin cleavage of the parent antibody, reduction and reoxidation), conjugated to MalPEG-DSPE on the surface of … (Fab, V domains shown)
VH: QVQLVESGGGVVQPGRSRRLSCAASGFTFSRYTMHWVRQAPGKGLEWVAVISFDGSNKYYVDSVKGRFTISRDNSENTLYLQVNILRAEDTAVYYCAREARGSYAFDIWGQGTMVTVSS
VL: EIVLTQSPATLSLSPGERATLSCRASQSVSSYLAWYQQKPGQAPRLLIYDASNRATGIPARFSGSGSGTDFTLTISSLEPEDFAVYYCQQRSNWPPFTFGPGTKVDIKR
modifications: free sulfhydryl near the C-terminus conjugated to maleimide-PEG-DSPE inserted in the liposome
